Reference: PMC5454954, “BDNF Binds Its Pro-Peptide with High Affinity and the Common Val66Met Polymorphism Attenuates the Interaction” (International Journal of Molecular Sciences, 2017)
Positions count from the first letter of the chain named.

Columns and labels:
[1] = target: BDNF pro-peptide, Met66 (Val66Met polymorphism; Met-pro-peptide) V66M (UniProt P23560); assay: Surface plasmon resonance (BIAcore 2000); settings: pH 7.4; 20 °C; 0.15 M NaCl; HBS-EP: 0.01 M HEPES (pH 7.4). For Figure 2c the same buffer was adjusted to pH 6.5 or 7.0 with HCl.
[2] = target: BDNF pro-peptide, Val66 (wild type; Val-pro-peptide) (UniProt P23560); assay: Surface plasmon resonance (BIAcore 2000); settings: pH 7.4; 20 °C; 0.15 M NaCl; HBS-EP: 0.01 M HEPES (pH 7.4). For Figure 2c the same buffer was adjusted to pH 6.5 or 7.0 with HCl.
[3] = target: T1, recombinant BDNF pro-peptide with the Met substitution at position 66 (Val66Met) (human, UniProt P23560 19-128, Val66Met); assay: SPR; BIAcore 2000; BDNF pro-peptide (Val or Met) amine-coupled to a CM5 chip at about 2000 RU; neurotrophins and other proteins flowed over; 20 °C, 20 µL/min; HBS-EP (0.01 M HEPES pH 7.4, 0.15 M NaCl, 3 mM EDTA, 0.005% Surfactant P20); settings: both partners purified
T1 construct: BDNF pro-peptide, residues 19-128 of human precursor BDNF, with the common polymorphism Val66Met; Vector pET-19b; also called Met-BDNF pro-peptide; Met-pro-peptide; source: E. coli BL21 (DE3) pLysS, purified by liquid chromatography
T1 sequence (looked up): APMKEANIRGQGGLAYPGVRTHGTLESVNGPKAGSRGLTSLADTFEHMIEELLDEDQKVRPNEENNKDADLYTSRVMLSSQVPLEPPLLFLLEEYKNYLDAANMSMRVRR

[4] = target: T2, recombinant wild-type BDNF pro-peptide (Val at position 66) (human, UniProt P23560 19-128); assay: as above; settings: both partners purified
T2 construct: BDNF pro-peptide, residues 19-128 of human precursor BDNF; Vector pET-19b; also called Val-BDNF pro-peptide; Val-pro-peptide; source: E. coli BL21 (DE3) pLysS, purified by liquid chromatography
T2 sequence (looked up): T1 sequence (looked up) with M48V

[5] = target: T3, recombinant wild-type BDNF pro-peptide (Val at position 66) (human, UniProt P23560 19-128); assay: SPR
T3 chain: T1 sequence (looked up) with M48V

Brain-derived neurotrophic factor (mature BDNF)
ka [1]: 36300 M⁻¹ s⁻¹ | kd [1]: 0.000444 s⁻¹ | ka [2]: 378000 M⁻¹ s⁻¹ | kd [2]: 0.0159 s⁻¹

B1: brain-derived neurotrophic factor (BDNF), recombinant human (ligand)
chain: HSDPARRGELSVCDSISEWVTAADKKTAVDMSGGTVTVLEKVPVSKGQLKQYFYETKCNPMGYTKEGCRGIDKRHWNSQCRTTQSYVRALTMDSKKRIGWRFIRIDTSCVCTLTIKRGR
modifications: mature BDNF; non-covalent homodimer, three intrachain disulfides per chain; a recombinant N-terminal Met is not stated
Kd [3]: 12.2 nM | koff [3]: 0.000444 s⁻¹ | kon [3]: 36300 M⁻¹ s⁻¹ | Kd [4]: 42.1 nM | koff [4]: 0.0159 s⁻¹ | kon [4]: 378000 M⁻¹ s⁻¹

B2: recombinant human neurotrophin-4 (NT-4) (ligand)
chain: GVSETAPASRRGELAVCDAVSGWVTDRRTAVDLRGREVEVLGEVPAAGGSPLRQYFFETRCKADNAEEGGPGAGGGGCRGVDRRHWVSECKAKQSYVRALTADAQGRVGWRWIRIDTACVCTLLSRTGRA
Kd [5]: 230 nM
